Experimental data published in US20210363241A1 (Eli Lilly, published 2021).

Columns and labels:
[1] = molecular target: T1, Human CD226 on the cell surface of stably transfected HEK 293 cells (human, UniProt Q15762 19-336); experiment: cell-based or functional assay
T1 sequence: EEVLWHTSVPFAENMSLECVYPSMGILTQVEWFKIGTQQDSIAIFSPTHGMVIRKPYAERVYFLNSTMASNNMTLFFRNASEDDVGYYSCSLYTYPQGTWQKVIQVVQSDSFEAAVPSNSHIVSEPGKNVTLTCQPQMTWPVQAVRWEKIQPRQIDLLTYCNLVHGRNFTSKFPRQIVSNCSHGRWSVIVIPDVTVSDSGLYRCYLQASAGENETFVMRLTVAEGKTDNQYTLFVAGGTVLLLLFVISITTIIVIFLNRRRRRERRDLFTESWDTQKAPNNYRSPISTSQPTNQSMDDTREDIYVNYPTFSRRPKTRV

[2] = molecular target: T2, Recombinant human CD226-Fc fusion protein (R&D Systems) (human); experiment: ELISA, plate coated with human CD226-Fc, anti-human F(ab')2-HRP detection
T2 construct: The reagent was bought from R&D Systems; also called Human CD226-ECD-Fc; Human CD226-Extracellular Domain-Fc
Method: The ability of the antibodies disclosed herein to bind human CD226 can be measured by ELISA. To measure binding to human CD226, a 96-well plate (Immulon 2HB) is coated with human CD226-Fc (R&D Systems) overnight at 4° C. Wells are blocked for 2 h with blocking buffer (PBS containing 1% bovine serum albumin). Wells are washed three times with PBS containing 0.1% Tween-20. Antibody 1 or control IgG (100 μL) is then added at different concentrations and incubated at room temperature for 1 h. After washing, the plate is incubated with 100 μL of goat anti-human IgG F(ab′)2-HRP conjugate (Jackson Immuno Research Laboratories) at room temperature for 45 minutes. The plates are washed and then incubated with 100 μL of 3,3′, 5,5′-tetra-methylbenzidine. The absorbance at 450 nm is read on a SpectraMax® microplate reader. The half maximal effective concentration (EC50) is calculated using GraphPad Prism 7 software.

[3] = molecular target: T1, Human CD226 on the cell surface of …; experiment: flow cytometry on HEK 293 cells expressing human CD226, antibody at 0.14 ug/mL
Method: (§1) The ability of the antibodies disclosed herein to bind to cell surface Human CD226 can be measured using a flow cytometric assay. Human CD226 expressing stable cells are generated by transfecting human-CD226 plasmid DNA into human HEK 293 cells (ATCC) using Fugene-6 reagent (Promega) according to the manufacturer's protocol. Stable cells are selected using 0.5 μg/mL puromycin in Dulbecoo's Modified Eagle's Medium containing 10% fetal bovine serum and 1% GlutaMAX™. For flow cytometry, confluent adherent cells are detached using Gibco® Cell Dissociation Buffer (Life Technologies), washed with complete media, then resuspend in FACS buffer (phosphate buffered saline containing 2.5% fetal bovine serum+1 mM EDTA) and then transferred into a 96 well V bottom plate at a density of 5×10⁴ cells/well. […]
(§2) After washing in FACS buffer, secondary antibody allophycocyanin (APC) conjugated goat anti-human IgG, F(ab′)2 fragment specific antibody (Jackson ImmunoResearch Laboratories) is added at a 1:200 dilution and cells are incubated at room temperature for 30 minutes. […] Flow cytometry data is analyzed using FlowJo® Software. Median fluorescence intensity (MFI) ratio is calculated as the (MFI of Experimental antibody)/(MFI of the control IgG).

[4] = molecular target: T3, Cynomolgus monkey CD226 on the cell surface of stably transfected HEK 293 cells (cynomolgus monkey, UniProt A0A2K5W1Z6 19-336); experiment: flow cytometry on HEK 293 cells expressing cynomolgus CD226, antibody at 0.14 ug/mL
T3 construct: whole, on cells; also called Cyno-CD226
T3 sequence: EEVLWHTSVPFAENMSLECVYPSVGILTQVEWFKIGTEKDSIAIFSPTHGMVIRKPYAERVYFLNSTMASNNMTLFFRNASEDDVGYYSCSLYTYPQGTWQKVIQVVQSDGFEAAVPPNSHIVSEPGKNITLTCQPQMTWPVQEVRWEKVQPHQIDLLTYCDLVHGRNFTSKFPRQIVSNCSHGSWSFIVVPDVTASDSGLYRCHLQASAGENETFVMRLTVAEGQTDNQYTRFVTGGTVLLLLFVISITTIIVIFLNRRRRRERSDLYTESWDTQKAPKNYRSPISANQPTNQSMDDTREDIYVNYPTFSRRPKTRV
Method: as §1, with “surface cynomolgus monkey” for “surface Human”, “assay. Cynomolgus monkey” for “assay. Human”, “transfecting Cyno-CD226” for “transfecting human-CD226”
as §2

[5] = molecular target: T2, Recombinant human CD226-Fc fusion …; experiment: SPR (Biacore T200), human CD226-Fc amine-coupled to chip, antibody injected at 1.95-1000 nM, 25 C, steady state fit
Method: A Biacore T200 instrument can be used to measure the kinetics of immobilized human CD226-Fc binding to Antibody 1. Recombinant human CD226-Fc fusion protein (R&D Systems) is covalently immobilized to a CMS sensor chip via amine coupling (GE Healthcare). CD226 antibody testing is performed at a flow rate of 100 μL/min in HBS-EP+buffer. Samples are injected at various concentrations and measurements obtained at 25° C. The surface is regenerated after each sample injection with 10 mM Glycine-HCl pH 2.1 at flow rate of 10 μL/min for 30 seconds and then stabilized with buffer for 10 seconds. Sensorgrams of concentrations ranging from 1.95 nM to 1000 nM are evaluated using Biacore T200 software. The equilibrium dissociation constant (KD) or binding affinity constant is calculated from steady state fit. In experiments performed essentially as described above, Antibody 1 binds to human CD226 with the affinity constants illustrated in Table 2.

NF-kB luciferase reporter EC50 [1]: 4.11 nM | EC50 [2]: 0.1 nM | MFI ratio (MFI of antibody / MFI of control IgG) [3]: 851 | MFI ratio (MFI of antibody / MFI of control IgG) [4]: 2920 | Kd [5]: 334 nM
B1: Antibody 1 (antibody, human IgG1, kappa, V domains shown)
VH: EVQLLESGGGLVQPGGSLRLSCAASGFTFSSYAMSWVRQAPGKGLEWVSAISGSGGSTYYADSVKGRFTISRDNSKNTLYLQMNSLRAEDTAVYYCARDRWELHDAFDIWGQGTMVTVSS
VL: VIWMTQSPSSLSASVGDRVTITCRASQSISSYLNWYQQKPGKAPRLLIYRASTLQSGVPSRFSGDGSGTHFTLTISSLQPEDFATYYCQQSYSTPDTFGQGTKVEIKR
notes: also called anti-human CD226 agonist antibody; human anti-human CD226 IgG1-effector null (IgG1-EN) antibody
